In patent publication WO2001068708A2 (dated 2001):

T1: fibroblast activating protein alpha (FAPα), cell surface-bound (human, UniProt Q12884 1-760)
T1 construct: whole, on cells; Also used as the target of the FAP-specific immunohistological staining of tumour cryo-sections; also called FAP+ cells; FAP overexpressing fibrosarcoma cells (HT1080)
T1 sequence (looked up): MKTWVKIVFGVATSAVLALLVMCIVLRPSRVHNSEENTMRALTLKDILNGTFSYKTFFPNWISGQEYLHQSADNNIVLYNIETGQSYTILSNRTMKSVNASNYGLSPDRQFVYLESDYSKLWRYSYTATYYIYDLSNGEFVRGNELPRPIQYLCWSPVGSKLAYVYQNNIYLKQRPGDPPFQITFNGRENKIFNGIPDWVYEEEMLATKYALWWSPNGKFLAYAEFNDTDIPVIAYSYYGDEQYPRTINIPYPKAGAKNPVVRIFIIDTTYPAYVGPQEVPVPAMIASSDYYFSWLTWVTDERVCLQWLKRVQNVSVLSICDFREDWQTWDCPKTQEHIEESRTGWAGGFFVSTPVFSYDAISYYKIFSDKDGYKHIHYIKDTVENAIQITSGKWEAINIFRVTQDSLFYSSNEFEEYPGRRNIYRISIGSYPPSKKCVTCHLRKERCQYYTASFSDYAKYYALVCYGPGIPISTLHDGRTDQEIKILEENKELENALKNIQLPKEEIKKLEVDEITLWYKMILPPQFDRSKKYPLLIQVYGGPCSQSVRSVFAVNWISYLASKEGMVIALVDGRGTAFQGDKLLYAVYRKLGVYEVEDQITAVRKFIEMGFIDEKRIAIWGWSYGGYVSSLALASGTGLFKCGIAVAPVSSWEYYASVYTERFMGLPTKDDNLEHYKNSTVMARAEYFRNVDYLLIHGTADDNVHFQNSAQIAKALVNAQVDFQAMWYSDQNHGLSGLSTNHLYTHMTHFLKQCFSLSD

T2: fibroblast activating protein alpha (FAPα), purified / immobilised antigen (human, UniProt Q12884 27-760, limits assumed)
T2 construct: Antigen coated on ELISA wells and immunotubes; The construct is not described; also called human FAP; immobilized FAP
T2 sequence (looked up): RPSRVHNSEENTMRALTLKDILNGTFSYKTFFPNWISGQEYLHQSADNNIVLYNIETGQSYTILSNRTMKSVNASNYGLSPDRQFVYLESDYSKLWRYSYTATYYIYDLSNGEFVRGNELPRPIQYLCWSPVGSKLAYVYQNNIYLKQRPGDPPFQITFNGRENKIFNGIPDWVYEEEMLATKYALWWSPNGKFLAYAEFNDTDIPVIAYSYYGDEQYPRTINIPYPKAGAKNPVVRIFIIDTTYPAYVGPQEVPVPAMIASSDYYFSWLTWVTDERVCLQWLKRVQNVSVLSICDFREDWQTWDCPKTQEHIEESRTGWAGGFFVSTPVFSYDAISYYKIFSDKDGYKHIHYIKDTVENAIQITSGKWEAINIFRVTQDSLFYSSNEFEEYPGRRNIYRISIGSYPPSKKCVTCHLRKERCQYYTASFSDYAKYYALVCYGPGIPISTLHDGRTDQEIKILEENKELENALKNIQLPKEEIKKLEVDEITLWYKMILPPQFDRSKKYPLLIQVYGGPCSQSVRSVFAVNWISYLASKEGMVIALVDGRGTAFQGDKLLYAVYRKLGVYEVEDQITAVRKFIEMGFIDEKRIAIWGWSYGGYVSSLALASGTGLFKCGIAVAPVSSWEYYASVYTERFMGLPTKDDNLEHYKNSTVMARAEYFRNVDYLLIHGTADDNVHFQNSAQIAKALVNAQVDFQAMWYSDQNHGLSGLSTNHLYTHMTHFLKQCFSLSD

B1: scFv #50 as bivalent in minibody format (other)
chain: QVQLVESGGGLVQPGGSLRLSCAASGFTFSNYWMSWVRQAPGKGLEWVANIKQDGSEKYYVDSVKGRFTISRDNAKNSLYLQMNSLRAEDTAVYYCARGSLCTDGSCPTIGPGPNWGQGTLVTVSSAPTKAPKLEEGEFSEARVDIQMTQSPSSLSASTGDRVTITCRASQDISSYLAWYQQAPGKAPHLLMSGATTLQTGVPSRFSGSGSGTDFTLTITSLQSEDFATYYCQQYYIYPPTFGQGTRVEIKRTVAAPSVFAA
B2: scFv F19 (parental murine scFv) (scFv, V domains shown)
VH: EVQLQQSGPELVKPGASVKMSCKTSRYTFTEYTIHWVRQSHGKSLEWIGGINPNNGIPNYNQKFKGRATLTVGKSSSTAYMELRSLTSEDSAVYFCARRRIAYGYDEGHAMDYWGQGTSVTVSS
VL: DIVMSQSPSSLAVSVGEKVTMSCKSSQSLLYSRNQKNYLAWFQQKPGQSPKLLIFWASTRESGVPDRFTGSGFGTDFNLTISSVQAEDLAVYDCQQYFSYPLTFGAGTKLELK
B3: scFv #13 as bivalent in minibody format (other)
chain: QVQLVESGGTLVQPGGSLRLSCAASGFTFSSYAMSWIRQAPGKGLEWVSGISASGGYIDYADSVKGRVTISRDNSKNMAYLQMSSLRAEDTALYYCAKGGNYQMLLDHWGQGTLVTVSSASTKGPKLEEGEFSEARVDIQMTQSPSSLSASTGDRVTITCRASQDISSYLAWYQQAPGKAPHLLMSGATTLQTGVPSRFSGSGSGTDFTLTITSLQSEDFATYYCQQYYIYPPTFGQGTRVEIKRTVAAPSVFAA

Legend:
[1] = molecular target: T1, fibroblast activating protein alpha …; assay: binding to FAP+ cells, cell analyser, half maximal saturation
[2] = molecular target: T2, fibroblast activating protein alpha …; assay: sandwich ELISA, half maximal saturation of binding (SC50), c-myc tag detection
[3] = molecular target: T1, fibroblast activating protein alpha …; assay: flow cytometry on FAP overexpressing HT1080 cells, half maximal saturation (SC50)

Row | Binder | EC50 [1] | EC50 [2] | EC50 [3]
1 | B1 | 32 nM | – | –
2 | B2 | – | 20 nM | 20 nM
3 | B3 | 8 to 12 nM | – | –
